# Experimental data reported in the DeepSol protein solubility set.
# Test: soluble on expression in E. coli; label from the status in PepcDB or PDB records
row,Sequence,soluble on expression in E. coli
1,HDDGLPAFRYSAELLGQLQLPSVALPLNDDLFLYGRDAEAFDLEAYLALNAPALRDKSEYLEHWSGYYSINPKVLLTLMVMQSGPLGAPDERALAAPLGRLSAKRGFDAQVRDVLQQLSRRYYGFEEYQLRQAAARKAVGEDGLNAASAALLGLLREGAKVSAVQGGNPLGAYAQTFQRLFGTPAAELLQPSNRVARQLQAKAALAPPSNLMQLPWRQGYSWQPNGAHSNTGSGYPYSSFDASYDWPRWGSATYSVVAAHAGTVRVLSRCQVRVTHPSGWATNYYHMDQIQVSNGQQVSADTKLGVYAGNINTALCEGGSSTGPHLHFSLLYNGAFVSLQGASFGPYRINVGTSNYDNDCRRYYFYNQSAGTTHCAFR,not soluble
2,MSTGSVDSQQSGGTLDAASKNIDHVIDQARHRHHQHRSKFKEAIDYLDQIFEDLKKECDPDDKNNNDENNKPFDPPPTFVAVKKKPTPLATSSASTTAPAAKIASASDSKKPASSSSTISVKPTVRQKTSETSKSKPLQQAPPSPVEVVIPVRKLSQGATNNQAEPTVAETIVLAKKTDKMDFTRRWLQDDLKSLAHLPPANIAPNASYYQDFDEHSLGSCSAEVAAFNTTKEKKNGSKASRKVSDSSDMIRPRPFRPQPVYPMVDGFNGPSAFEPFSSHTLPRVASNDQIPSEMKRSGSQDPYNTLRSMRSEGDGFDSARPSPSAFQQVSPFHRGSSMRSSLRSLPDHSPVRQKNSSYEVAAKDPVLSIDQLVAELELNTENTFSPADKRRSFPTSFGRPQAHQAQQHHAPSDYEKPNRFRAETRHAPTRGRAQNFVAPVAEPMTSKAPIYSQAVRPKQQQQQKSLDEVTSMLNRAVSQFGNEQRQAYQHPTAYKQLSQQSFGSVHSNNAFETINQEKINPSRVEAMHNMFERGTAPTSWKMQQKDSYEDRSQKMSPLQEVTYASLNSYSPPPPPPSHPLPQNGSHGMARNTSQNQISYHEYTPQPPTTQPPQRPPGSANSSQGGYYSSNSSGIGSNYPQNQQNQMYNNPRRSLIIDQQSISSRMPSVENDDDDGFYDNIGIYNDDRRYSRGSELETSASFRQLPPASNTSKHNRIGSFLRKIGGGSSRPPGSAASLMSLNKIANETIIKPGGLMKSNSLSNEPWKKVMLNGGASMPREANNNHKTGLGARLKNSLFGSRKRLDG,not soluble
3,MGSDKIHHHHHHMDNKELKAFCNLIGLNCVGVAGVDKYDNLEKILKDRQQKGYLTGMEEPIIENRINPRHIMKDANSIIVCAFPYHINRQEKNKNSNLSKYCHGKDYHIVVKDFLQQICDYISKTVTDFKYKLFADNGPLVDRYLAYLSGIGYFGINNNIITDEYGSYVFIGYIVNNYKFEEDKPLEKSCFKCGKCVKYCPGNAILGNYDMNPKKCLSYITQKKGDLSEKEKVVLKNGKKVFGCDICQEVCPHNVEIPTTHILEFKENIIDYLDYDEIQNISNKEFKRRYGDRAFSWRGRNIIKRNMEIILDKYDD,not soluble
4,MAEILERSGYLVKVRVEVPADRVKASYEALLKDLASRVRVPGFRPGKAPLKVVEARLGREALLQDLKERLVEETYPEAVRELGLSPVAARVVEQDLSEGEGFRYVAEVENYPEVRLPDWRSFALEVSPPEVTEEMVEKALEELRQRYAELVPVEREAQEKDHLFVRTEEGAEFPIDLAKALPHVREALLGKKAGDVVMVPVLNDKGEKVREVRTEVLEVKTLKLPELDEEFAKTLEAESLEDLKNRVRESLKRQAERAYEEARERAFLEKLAEGLEVEIPPSMLRAEERHLLEHLAEDLYRQGISLEAYLEALKEKGELEKFQEDLRKEAEKRVRIALAREKLAEELNPEVSEEEWQAYLQAAARAYGVAVQDLRRQFGEEGLARLKERLRQDKAVQEALKALG,soluble
5,MTVPYETAKAALLEAAMMHVPFDGWSETTFQAAARDAELSPSVARAICPRGAVDLAIAFHKAGDAAMLDRLAETDLSAMKFRDKVTAAVRIRLEVIEDKEAVRRGTTLFALPMYAADGAKLIWGTCDAIWTTLGDTSDDVNWYTKRATLSGVYSSTVLYWLGDDSPDHMATWGFLDRRIENVMAIEQVKAKVRQSPTLSRLMTGPNWLLSQIKAPRITPKTDLEHHHHHH,soluble
6,MSIMGKVAKLDSAMQRGLDNSFAFVFGGKLVPAEIEELLKQEVQDNIVRAYEGGVESPNVFRVRVSRKDAQNLAQRYPSLADDFADRLSRYTRNQGWSTEGPVVVTIAADSGLRTGQLHASSAFDPVPQEYSHFIGVEDDVAAAAPTNDESNYESESGMNSYDADPRTEYMTAQAPDAIYTEVPVPEPKATPTVSLLLQDGSSRTYLVEEGSNIIGRSNEAHFRLPDTGVSRQHAEITWNGRDAILTDLKSTNGTTVNDTPVENWLLEDGDVITVGHSHIEVRIVEPN,not soluble
7,MAHHHHHHMLFYITPFPHSEVMRVEEQHQLFLAAKEAQLVRNEATQIILSDASHHSALHGAFVRVLVELPDQSDSYIIARVGAVTTGEPYDGFSHNTSTRTDKYLVLVLPHSLASINGTQYQLNSISNSPMTEDEFNLWLSTMQEPGSVPACAYRGVVEDTDAHLYLESSKIPSRQELLAIGGRIHALGSAASQNSRNPNSRRRRSNNGSSEQSLQQPEWMPKEQQMAIPRISSGNGATLGSIAGMQDYSAFMANPTGGAGPQNGANFNHTNSDPLPSTAGVTEGTNEPSLFVEPTTPRPASATEQELDLPSRHQIRQDILNKLNHRSVVFPQNIDELKLSQLRLVERDMIEYLEHVRDVLSSKQENCVVCLDHVPTVISLPCRHKVLCRLCASAVSTCPVCRSHLFELFEPKEI,not soluble
8,MDIMNEKVKKIIEFMDKNSIDAVLIAKNPNVYYISGASPLAGGYILITGESATLYVPELEYEMAKEESNIPVEKFKKMDEFYKALEGIKSLGIESSLPYGFIEELKKKANIKEFKKVDDVIRDMRIIKSEKEIKIIEKACEIADKAVMAAIEEITEGKKEREVAAKVEYLMKMNGAEKPAFDTIIASGYRSALPHGVASDKRIERGDLVVIDLGALYQHYNSDITRTIVVGSPNEKQKEIYEIVLEAQKKAVESAKPGITAKELDSIARNIIAEYGYGEYFNHSLGHGVGLEVHEWPRVSQYDETVLREGMVITIEPGIYIPKIGGVRIEDTILITKNGSKRLTKTERELI,soluble
9,MAHHHHHHMGTLKAIIAPSVLASNISKLAEETQRMESLGAEWIHLDVMDMHFVPNLSFGPPVINNLKKYTKSIFFDVHLMVEYPEKYVPLLKTSNQLTFHFEALNEDTERCIQLAKEIRDNNLWCGISIKPKTDVQKLVPILDTNLINTVLVMTVEPGFGGQSFMHDMMGKVSFLRKKYKNLNIQVDGGLNIETTEISASHGANIIVAGTSIFNAEDPKYVIDTMRVSVQKYLNN,soluble
10,MSNNNKYFTITKKQYKKMRRNKIELLFNVKVLKKKNGRQKFKILHEVENKPKIPIKIIEDQPESPKPLKPPKPPKPPKGPDNPEEPDSPEEPKETDQPGGPDNPNAGNKKMPTPEEYVTRKEFNEFKDSNNQRLTKIENKVDKLEVKVDKLAEIVQTQGEEIKELKVEQKAQSETLQLILKTLQKMNDRLDRMETRLDKIDSPKLEHHHHHH,soluble
11,MRRTRRPRFVLMNKMDDLNLHYRFLNWRRRIREIREVRAFRYQERFKHILVDGDTLSYHGNSGEVGCYVASRPLTKDSNYFEVSIVDSGVRGTIAVGLVPQYYSLDHQPGWLPDSVAYHADDGKLYNGRAKGRQFGSKCNSGDRIGCGIEPVSFDVQTAQIFFTKNGKRVGSTIMPMSPDGLFPAVGMHSLGEEVRLHLNAELGREDDSVMMVDSYEDEWGRLHDVRVCGTLLEYLGKGKSIVDVGLAQARHPLSTRSHYFEVEIVDPGEKCYIALGLARKDYPKNRHPGWSRGSVAYHADDGKIFHGSGVGDPFGPRCYKGDIMGCGIMFPRDYILDSEGDSDDSCDTVILSPTARAVRNVRNVMYLHQEGEEEEEEEEEEEDGEEIEPEHEGRKVVVFFTRNGKIIGKKDAVVPSGGFFPTIGMLSCGEKVKVDLHPLSG,soluble
12,MAEDIFRVATVEDAPEFLELLSSAFKSVKELGIDWPSTNADLAMVTENIVNSSAFVLERNGKLISTITVRFPWESSSPPSKYPFVWWFATAPELAGQGIGDKLLTYVEERVLRDTLKAPALTLGTSARKHPWLLDMYLRRGYEVYFEHEEDGDVGVMMRKILIPEKFDATLLGIPSWT,not soluble
13,MGSDKIHHHHHHMKRARIIYNPTSGREIFKKHLAQVLQKFEQAGYETSTHATTCAGDATHAAKEAALREFDLIIAAGGDGTINEVVNGLAPLDNRPTLGVIPVGTTNDFARALGIPREDILKAADTVINGVARPIDIGQVNGQYFINIAGGGRLTELTYDVPSKLKTMLGQLAYYLKGMEMLPSLRPTEVEIEYDGKLFQGEIMLFLVTLTNSVGGFEKLAPDSSLNDGMFDLMILKKANLAEFIRVATMALRGEHINDQHIIYTKANRVKVNVSEKMQLNLDGEYGGMLPGEFVNLYRHIHVVMPKEKAEQLDD,not soluble
14,NGEHTTDIEEQYLEAIRGATQRITLANAYFFPSYRFLRELRNASRRGVKVTLILQGQPDMPFVRVCSRLTYTYLLRDGVVIHEYKQRALHGKVALIDQEWSTVGSSNLDPLSLALNLEANLFIRDKALNQHLQGHLMELAAAHSTQMSLKGAAR,not soluble
15,APEERDLTQEQTEKLLQFQDLTGIESMDQCRHTLEQHNWNIEAAVQDRLNEQEGVPSVFNPPPSRPLQVNTADHRIYSYVVSRPQPRGLLGWGYYLIMLPFRFTYYTILDIFRFALRFIRPDPRSRVTDPVGDIVSFMHSFEEKYGRAHPVFYQGTYSQALNDAKRELRFLLVYLHGDDHQDSDEFCRNTLCAPEVISLINTRMLFWACSTNKPEGYRVSQALRENTYPFLAMIMLKDRRMTVVGRLEGLIQPDDLINQLTFIMDANQTYLVSERLEREERNQTQVLRQQQDEAYLASLRADQEKERKKREERERKRRKEEEVQQQKLAEERRRQNLQEEKERKLECLPPEPSPDDPESVKIIFKLPNDSRVERRFHFSQSLTVIHDFLFSLKESPEKFQIEANFPRRVLPCIPSEEWPNPPTLQEAGLSHTEVLFVQDLTDE,soluble
16,MGSDKIHHHHHHMDRYRGNAEAVKNLVRGHAVHRDVYVDKEVFDLEMEQLFPNSWVYVGHESQLKDPGDYITSKIGHQPILISRHKNGTIHVLHNRCPHKGVKIASEPCGNTGKFFRCPYHAWSFKTDGSLLAIPLKKGYEGTGFDNDRAKDGLPRVENVHIYRGFIFARLSDTGLSFEDYFGDSLSTIDNMVDRSPKGEVEIIAAPIRYMHTCNWKMLVDNQTDTCHPMVAHESSAGTAVSVWEREKHRFTETPMAVQLYAPFMSPYEFYESAGIRVWPNGHGHSGVSGSIHQDYDDVDGYLEMMVEAYGETRAREILGDIRHNTLYFPNVMVKGPVGILRNFIPVAVDRTLVESWAFRLVGAPDKIYERALMYNRFINAPTSIVGHDDLEMYERAQEGLLSDANEWINLRRLYEEGEPEDVTEVVNGTSERQMRNTFYAWRKFMVQGMEQKQEVSA,not soluble
17,MEFHFFGTGSGVPSIERNVSACAVRFLQQRGKQWLFDCGEATQHQILRSSIALGKIERIFITHLHGDHIFGLPGLLGSRSFQGGENPLFLYGPKGIRSFVETALQVSNTHVKYELTIEEFSEPGLLFHEEGFKVETILLDHVMPCYAFKVTEDDRPGELLVDRLKAKGVPPGPLYRKIQQGETVELPTGERLEANAFLGPPKRGRSFVLAGDTRPVKELIPFAKNVNVLIHEATFLDDKKGHAHEYGHSTMADAIQLAKQANVDHLILTHISSRYHDMSDELQKKAQNAFANAVVAHDFYVFHLPLAKGLEHHHHHH,not soluble
18,MNKKELIDRVAKKAGAKKKDVKLILDTILETITEALAKGEKVQIVGFGSFEVRKAAARKGVNPQTRKPITIPERKVPKFKPGKALKEKVK,soluble
